Experiment [1] deals with mixture of three Der p 2 specific recombinant human IgE clones H10, H12, P4E (human) (UniProt P01854). Kind of experiment: RBL-SX38 IgE displacement, FACS.
Experiment [2] deals with IgE on basophils of allergic donors (human) (UniProt P01854). Nature of the experiment: displacement of IgE from FcεRI on basophils, whole blood of an allergic donor, flow cytometry of surface IgE [panel C]. (In general: Flow cytometry measures light scatter and fluorescence of single cells or particles in a stream.)
Experiment [3] shares this target. Kind of experiment: displacement of IgE from FcεRI on basophils, whole blood of an allergic donor, flow cytometry of surface IgE [panel B].

The values below come from patent US20250171562A1.

Chain of IgE on basophils of allergic donors (human) (P01854 1-428): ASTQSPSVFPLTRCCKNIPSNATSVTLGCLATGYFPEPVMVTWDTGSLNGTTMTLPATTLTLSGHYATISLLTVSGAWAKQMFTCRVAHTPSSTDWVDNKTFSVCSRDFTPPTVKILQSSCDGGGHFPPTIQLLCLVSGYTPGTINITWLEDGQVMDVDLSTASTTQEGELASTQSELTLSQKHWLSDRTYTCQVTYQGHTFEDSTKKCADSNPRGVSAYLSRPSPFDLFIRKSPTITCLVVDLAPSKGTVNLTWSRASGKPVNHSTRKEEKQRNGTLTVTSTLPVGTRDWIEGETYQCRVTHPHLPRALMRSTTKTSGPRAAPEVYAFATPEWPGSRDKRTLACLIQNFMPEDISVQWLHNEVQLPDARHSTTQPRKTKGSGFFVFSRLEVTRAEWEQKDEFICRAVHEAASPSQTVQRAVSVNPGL
Chain of mixture of three Der p 2 specific recombinant human IgE clones H10, H12, P4E (human) (P01854 other isoform, or with tags, fused parts or gaps): as the sequence (P01854 1-428) above, with L428K counted along it

B1: NIgG4B1A1(G4S)1 (Fc fusion)
chain 1: QVQLQESGGGLVQTGGSLRLSCAVHGRTFSNTGMGWFRQAPGNERQFVAIISPSGTSTYYADSVKGRFTISRDPAKNTVYLQMNSLKMDDTAVYYCAASYGSNWSTLRHQRRNEYDAWGQGTQVAVSGGGGSGPPCPPCPAPEFLGGPSVFLFPPKPKDTLMISRTPEVTCVVVDVSQEDPEVQFNWYVDGVEVHNAKTKPREEQFNSTYRVVSVLTVLHQDWLNGKEYKCKVSNKGLPSSIEKTISKAKGQPREPQVYTLPPCQEEMTKNQVSLWCLVKGFYPSDIAVEWESNGQPENNYKTTPPVLDSDGSFFLYSRLTVDKSRWQEGNVFSCSVMHEALHNHYTQKSLSLSLGK
chain 2: EVQLLESGGGLVQPGGSLRLSCAASGFTFGNYDMAWVRQAPGKRPEWVSSIDTGGDITHYADSVKGRFTISRDNAKNTLYLQMNSLRPEDTAVYWCATDEEYALGPNEFDYYGQGTLVTVSSGGGGSGPPCPPCPAPEFLGGPSVFLFPPKPKDTLMISRTPEVTCVVVDVSQEDPEVQFNWYVDGVEVHNAKTKPREEQFNSTYRVVSVLTVLHQDWLNGKEYKCKVSNKGLPSSIEKTISKAKGQPREPQVCTLPPSQEEMTKNQVSLSCAVKGFYPSDIAVEWESNGQPENNYKTTPPVLDSDGSFFLVSRLTVDKSRWQEGNVFSCSVMHEALHNHYTQKSLSLSLGK
As for B1, in experiment [1], the EC50 came to 3 nM and the Max effect/effect 1 µM amounted to 99%. In addition, the EC50 (read off the curve) in experiment [2] came to 3 nM. In experiment [3], this molecule had an EC50 (read off the curve) of 4 nM.

B2: CIgG4F6A1(G4S)1 (Fc fusion)
chain 1: GPPCPPCPAPEFLGGPSVFLFPPKPKDTLMISRTPEVTCVVVDVSQEDPEVQFNWYVDGVEVHNAKTKPREEQFNSTYRVVSVLTVLHQDWLNGKEYKCKVSNKGLPSSIEKTISKAKGQPREPQVYTLPPCQEEMTKNQVSLWCLVKGFYPSDIAVEWESNGQPENNYKTTPPVLDSDGSFFLYSRLTVDKSRWQEGNVFSCSVMHEALHNHYTQKSLSLSLGKGGGGSDVQLQESGGGLVQAGGSLRLSCAASGLTFGSYDMGWYRQAPGKQRELVGRIRNDGITYYADSVKGRFTMSRDNAKNTVYLQMNSLKPEDTAVYYCAADGTGLGHYDYWGQGTQVTVS
chain 2: GPPCPPCPAPEFLGGPSVFLFPPKPKDTLMISRTPEVTCVVVDVSQEDPEVQFNWYVDGVEVHNAKTKPREEQFNSTYRVVSVLTVLHQDWLNGKEYKCKVSNKGLPSSIEKTISKAKGQPREPQVCTLPPSQEEMTKNQVSLSCAVKGFYPSDIAVEWESNGQPENNYKTTPPVLDSDGSFFLVSRLTVDKSRWQEGNVFSCSVMHEALHNHYTQKSLSLSLGKGGGGSEVQLLESGGGLVQPGGSLRLSCAASGFTFGNYDMAWVRQAPGKRPEWVSSIDTGGDITHYADSVKGRFTISRDNAKNTLYLQMNSLRPEDTAVYWCATDEEYALGPNEFDYYGQGTLVTVSS
For the molecule B2, in experiment [1], the EC50 is 59.9 nM and the Max effect/effect 1 µM amounted to 95%.

B3: CIgG4B1A1(RS) (Fc fusion)
chain 1: GPPCPPCPAPEFLGGPSVFLFPPKPKDTLMISRTPEVTCVVVDVSQEDPEVQFNWYVDGVEVHNAKTKPREEQFNSTYRVVSVLTVLHQDWLNGKEYKCKVSNKGLPSSIEKTISKAKGQPREPQVYTLPPCQEEMTKNQVSLWCLVKGFYPSDIAVEWESNGQPENNYKTTPPVLDSDGSFFLYSRLTVDKSRWQEGNVFSCSVMHEALHNHYTQKSLSLSLGKRSQVQLQESGGGLVQTGGSLRLSCAVHGRTFSNTGMGWFRQAPGNERQFVAIISPSGTSTYYADSVKGRFTISRDPAKNTVYLQMNSLKMDDTAVYYCAASYGSNWSTLRHQRRNEYDAWGQGTQVAVS
chain 2: GPPCPPCPAPEFLGGPSVFLFPPKPKDTLMISRTPEVTCVVVDVSQEDPEVQFNWYVDGVEVHNAKTKPREEQFNSTYRVVSVLTVLHQDWLNGKEYKCKVSNKGLPSSIEKTISKAKGQPREPQVCTLPPSQEEMTKNQVSLSCAVKGFYPSDIAVEWESNGQPENNYKTTPPVLDSDGSFFLVSRLTVDKSRWQEGNVFSCSVMHEALHNHYTQKSLSLSLGKRSEVQLLESGGGLVQPGGSLRLSCAASGFTFGNYDMAWVRQAPGKRPEWVSSIDTGGDITHYADSVKGRFTISRDNAKNTLYLQMNSLRPEDTAVYWCATDEEYALGPNEFDYYGQGTLVTVSS
Turning to B3, in experiment [1], the concentration giving a half-maximal response (EC50) turned out to be 84.9 nM and the Max effect/effect 1 µM came out at 92%. The molecule also returned an EC50 (read off the curve) in experiment [2] of 20 nM. This molecule had an EC50 (read off the curve) in experiment [3] of 10 nM.

B4: CIgG4F6A1(G4S)2 (Fc fusion)
chain 1: GPPCPPCPAPEFLGGPSVFLFPPKPKDTLMISRTPEVTCVVVDVSQEDPEVQFNWYVDGVEVHNAKTKPREEQFNSTYRVVSVLTVLHQDWLNGKEYKCKVSNKGLPSSIEKTISKAKGQPREPQVYTLPPCQEEMTKNQVSLWCLVKGFYPSDIAVEWESNGQPENNYKTTPPVLDSDGSFFLYSRLTVDKSRWQEGNVFSCSVMHEALHNHYTQKSLSLSLGKGGGGSGGGGSDVQLQESGGGLVQAGGSLRLSCAASGLTFGSYDMGWYRQAPGKQRELVGRIRNDGITYYADSVKGRFTMSRDNAKNTVYLQMNSLKPEDTAVYYCAADGTGLGHYDYWGQGTQVTVS
chain 2: GPPCPPCPAPEFLGGPSVFLFPPKPKDTLMISRTPEVTCVVVDVSQEDPEVQFNWYVDGVEVHNAKTKPREEQFNSTYRVVSVLTVLHQDWLNGKEYKCKVSNKGLPSSIEKTISKAKGQPREPQVCTLPPSQEEMTKNQVSLSCAVKGFYPSDIAVEWESNGQPENNYKTTPPVLDSDGSFFLVSRLTVDKSRWQEGNVFSCSVMHEALHNHYTQKSLSLSLGKGGGGSGGGGSEVQLLESGGGLVQPGGSLRLSCAASGFTFGNYDMAWVRQAPGKRPEWVSSIDTGGDITHYADSVKGRFTISRDNAKNTLYLQMNSLRPEDTAVYWCATDEEYALGPNEFDYYGQGTLVTVSS
For the molecule B4, in experiment [1], the EC50 was found to be 16.6 nM and the Max effect/effect 1 µM came to 98%.

B5: CIgG4F6A1(G4S)3 (Fc fusion)
chain 1: GPPCPPCPAPEFLGGPSVFLFPPKPKDTLMISRTPEVTCVVVDVSQEDPEVQFNWYVDGVEVHNAKTKPREEQFNSTYRVVSVLTVLHQDWLNGKEYKCKVSNKGLPSSIEKTISKAKGQPREPQVYTLPPCQEEMTKNQVSLWCLVKGFYPSDIAVEWESNGQPENNYKTTPPVLDSDGSFFLYSRLTVDKSRWQEGNVFSCSVMHEALHNHYTQKSLSLSLGKGGGGSGGGGSGGGGSDVQLQESGGGLVQAGGSLRLSCAASGLTFGSYDMGWYRQAPGKQRELVGRIRNDGITYYADSVKGRFTMSRDNAKNTVYLQMNSLKPEDTAVYYCAADGTGLGHYDYWGQGTQVTVS
chain 2: GPPCPPCPAPEFLGGPSVFLFPPKPKDTLMISRTPEVTCVVVDVSQEDPEVQFNWYVDGVEVHNAKTKPREEQFNSTYRVVSVLTVLHQDWLNGKEYKCKVSNKGLPSSIEKTISKAKGQPREPQVCTLPPSQEEMTKNQVSLSCAVKGFYPSDIAVEWESNGQPENNYKTTPPVLDSDGSFFLVSRLTVDKSRWQEGNVFSCSVMHEALHNHYTQKSLSLSLGKGGGGSGGGGSGGGGSEVQLLESGGGLVQPGGSLRLSCAASGFTFGNYDMAWVRQAPGKRPEWVSSIDTGGDITHYADSVKGRFTISRDNAKNTLYLQMNSLRPEDTAVYWCATDEEYALGPNEFDYYGQGTLVTVSS
B5: in experiment [1], the concentration for a half-maximal effect (EC50) amounted to 7.9 nM and the Max effect/effect 1 µM came to 90%.

One may read the EC50 as the concentration giving half of the maximal effect. As a reminder, the EC50 (read off the curve) is the concentration at which the effect is half-maximal. The low end stands for a more potent agent, the high end for a less potent agent.
